# Results published in article PMC11259198.
# How the values were obtained:
# Test in all cases: SEC
# [1] = target: globular N-terminal domain of human apolipoprotein A-I (residue fragment 1–184), Glu34Lys (human)
# [2] = target: globular N-terminal domain of human apolipoprotein A-I (residue fragment 1–184), Leu159Arg (human)
# [3] = target: globular N-terminal domain of human apolipoprotein A-I (residue fragment 1–184), Phe71Tyr (human)
# [4] = target: globular N-terminal domain of human apolipoprotein A-I (residue fragment 1–184), wild type (human)
substance,measurement,setting,value
"globular N-terminal domain of human apolipoprotein A-I (residue fragment 1–184), Glu34Lys (domain or fragment)",stoichiometry N,[1],2
"globular N-terminal domain of human apolipoprotein A-I (residue fragment 1–184), Leu159Arg (domain or fragment)",stoichiometry N,[2],2
"globular N-terminal domain of human apolipoprotein A-I (residue fragment 1–184), Phe71Tyr (domain or fragment)",stoichiometry N,[3],2
"globular N-terminal domain of human apolipoprotein A-I (residue fragment 1–184), wild type (domain or fragment)",stoichiometry N,[4],2
